Source: US20220073563A1

Molecular target: GLP-2R (UniProt O95838)
Assay: cell-based or functional assay

Sequence of GLP-2R (O95838 whole entry): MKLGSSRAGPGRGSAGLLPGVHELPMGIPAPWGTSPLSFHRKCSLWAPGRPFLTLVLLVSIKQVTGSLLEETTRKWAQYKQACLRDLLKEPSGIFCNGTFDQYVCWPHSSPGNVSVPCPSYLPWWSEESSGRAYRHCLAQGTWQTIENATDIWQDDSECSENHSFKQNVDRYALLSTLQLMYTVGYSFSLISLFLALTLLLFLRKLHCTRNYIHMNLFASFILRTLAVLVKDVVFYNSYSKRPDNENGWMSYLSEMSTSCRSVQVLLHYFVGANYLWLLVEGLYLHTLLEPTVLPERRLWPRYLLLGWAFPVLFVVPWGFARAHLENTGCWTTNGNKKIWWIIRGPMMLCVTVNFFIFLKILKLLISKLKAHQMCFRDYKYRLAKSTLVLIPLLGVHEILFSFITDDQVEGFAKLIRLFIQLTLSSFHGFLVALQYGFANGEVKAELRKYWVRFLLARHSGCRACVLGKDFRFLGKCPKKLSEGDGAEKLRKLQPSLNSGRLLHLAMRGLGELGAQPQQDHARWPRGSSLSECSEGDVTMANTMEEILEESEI

With “GLP-2 (from UniProt P01275 146-178) (peptide)” the EC50, luciferase reporter in GLP-2R/Luc-CHO cells (6 h stimulation) was 4.7 nM.
